Columns and labels:
collagen I [1] = molecular target: collagen I (UniProt P02452); assay: SPR
collagen III = collagen III (UniProt P02461); assay: SPR; Biacore X100; collagen I or collagen III immobilised by amine coupling on a CM5 chip (around 1000 RU); CBD-SA-IL-4 flowed 90 s (collagen I) or 30 s (collagen III) at 30 μl/min; Langmuir 1:1 fit with drifting baseline
collagen I [2] = molecular target: collagen I (UniProt P02452); assay: as above

collagen I, sequence (P02452 162-1218, chain 1 of 2): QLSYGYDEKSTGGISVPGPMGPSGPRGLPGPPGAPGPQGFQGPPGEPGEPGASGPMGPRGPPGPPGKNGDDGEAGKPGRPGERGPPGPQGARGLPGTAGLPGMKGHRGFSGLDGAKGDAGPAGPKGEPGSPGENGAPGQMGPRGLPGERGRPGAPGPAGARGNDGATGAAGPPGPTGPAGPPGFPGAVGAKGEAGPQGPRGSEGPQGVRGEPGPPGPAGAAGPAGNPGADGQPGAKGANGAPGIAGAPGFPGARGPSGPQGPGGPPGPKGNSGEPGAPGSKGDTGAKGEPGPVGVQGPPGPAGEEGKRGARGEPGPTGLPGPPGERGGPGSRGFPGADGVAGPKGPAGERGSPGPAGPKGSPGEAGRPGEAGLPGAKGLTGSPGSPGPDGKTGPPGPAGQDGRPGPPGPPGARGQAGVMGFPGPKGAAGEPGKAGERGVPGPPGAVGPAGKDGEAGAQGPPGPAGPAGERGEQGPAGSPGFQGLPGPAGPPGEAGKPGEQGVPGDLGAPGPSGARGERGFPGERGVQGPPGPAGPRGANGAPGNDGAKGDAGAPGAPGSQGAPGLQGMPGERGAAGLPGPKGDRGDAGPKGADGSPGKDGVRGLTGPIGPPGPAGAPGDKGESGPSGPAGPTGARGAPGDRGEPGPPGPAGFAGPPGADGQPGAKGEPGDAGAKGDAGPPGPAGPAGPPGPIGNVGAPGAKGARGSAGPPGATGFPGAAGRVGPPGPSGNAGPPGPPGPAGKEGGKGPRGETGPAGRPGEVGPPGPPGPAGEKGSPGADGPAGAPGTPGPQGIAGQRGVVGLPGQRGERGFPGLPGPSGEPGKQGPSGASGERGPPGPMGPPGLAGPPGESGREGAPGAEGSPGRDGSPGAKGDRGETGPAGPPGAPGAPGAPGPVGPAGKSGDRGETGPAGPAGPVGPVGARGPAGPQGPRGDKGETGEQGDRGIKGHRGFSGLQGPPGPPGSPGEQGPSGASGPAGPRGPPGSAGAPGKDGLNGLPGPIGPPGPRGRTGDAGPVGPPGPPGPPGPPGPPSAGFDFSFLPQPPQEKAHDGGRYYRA
collagen I, sequence (P08123 80-1119, chain 2 of 2, further chain): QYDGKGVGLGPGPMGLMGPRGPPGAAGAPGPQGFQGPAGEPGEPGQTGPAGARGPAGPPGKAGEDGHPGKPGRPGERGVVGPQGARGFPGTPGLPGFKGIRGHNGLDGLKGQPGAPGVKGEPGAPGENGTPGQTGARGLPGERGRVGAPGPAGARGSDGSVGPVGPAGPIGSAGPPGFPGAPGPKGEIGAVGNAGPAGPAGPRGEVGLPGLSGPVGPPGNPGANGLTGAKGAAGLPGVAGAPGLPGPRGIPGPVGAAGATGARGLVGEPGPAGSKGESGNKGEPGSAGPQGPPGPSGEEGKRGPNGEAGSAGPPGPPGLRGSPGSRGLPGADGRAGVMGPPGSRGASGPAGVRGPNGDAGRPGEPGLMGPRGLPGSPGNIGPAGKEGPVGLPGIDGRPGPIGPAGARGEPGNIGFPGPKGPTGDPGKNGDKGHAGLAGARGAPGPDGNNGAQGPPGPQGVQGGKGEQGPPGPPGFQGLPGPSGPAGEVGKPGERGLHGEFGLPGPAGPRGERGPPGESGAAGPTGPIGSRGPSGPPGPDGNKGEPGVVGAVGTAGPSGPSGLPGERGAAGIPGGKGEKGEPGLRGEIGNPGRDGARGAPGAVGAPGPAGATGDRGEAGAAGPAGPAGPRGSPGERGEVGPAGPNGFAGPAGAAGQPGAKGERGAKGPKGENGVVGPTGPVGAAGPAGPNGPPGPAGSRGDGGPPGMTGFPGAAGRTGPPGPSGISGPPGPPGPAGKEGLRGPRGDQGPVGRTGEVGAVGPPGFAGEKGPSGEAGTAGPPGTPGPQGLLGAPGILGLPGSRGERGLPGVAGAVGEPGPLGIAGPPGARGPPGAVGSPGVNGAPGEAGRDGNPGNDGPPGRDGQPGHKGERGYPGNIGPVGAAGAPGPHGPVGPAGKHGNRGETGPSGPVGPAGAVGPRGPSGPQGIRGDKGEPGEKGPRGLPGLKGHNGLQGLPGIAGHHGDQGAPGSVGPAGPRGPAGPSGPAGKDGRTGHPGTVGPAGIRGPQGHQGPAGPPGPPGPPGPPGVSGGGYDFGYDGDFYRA
collagen III, sequence (P02461 154-1221): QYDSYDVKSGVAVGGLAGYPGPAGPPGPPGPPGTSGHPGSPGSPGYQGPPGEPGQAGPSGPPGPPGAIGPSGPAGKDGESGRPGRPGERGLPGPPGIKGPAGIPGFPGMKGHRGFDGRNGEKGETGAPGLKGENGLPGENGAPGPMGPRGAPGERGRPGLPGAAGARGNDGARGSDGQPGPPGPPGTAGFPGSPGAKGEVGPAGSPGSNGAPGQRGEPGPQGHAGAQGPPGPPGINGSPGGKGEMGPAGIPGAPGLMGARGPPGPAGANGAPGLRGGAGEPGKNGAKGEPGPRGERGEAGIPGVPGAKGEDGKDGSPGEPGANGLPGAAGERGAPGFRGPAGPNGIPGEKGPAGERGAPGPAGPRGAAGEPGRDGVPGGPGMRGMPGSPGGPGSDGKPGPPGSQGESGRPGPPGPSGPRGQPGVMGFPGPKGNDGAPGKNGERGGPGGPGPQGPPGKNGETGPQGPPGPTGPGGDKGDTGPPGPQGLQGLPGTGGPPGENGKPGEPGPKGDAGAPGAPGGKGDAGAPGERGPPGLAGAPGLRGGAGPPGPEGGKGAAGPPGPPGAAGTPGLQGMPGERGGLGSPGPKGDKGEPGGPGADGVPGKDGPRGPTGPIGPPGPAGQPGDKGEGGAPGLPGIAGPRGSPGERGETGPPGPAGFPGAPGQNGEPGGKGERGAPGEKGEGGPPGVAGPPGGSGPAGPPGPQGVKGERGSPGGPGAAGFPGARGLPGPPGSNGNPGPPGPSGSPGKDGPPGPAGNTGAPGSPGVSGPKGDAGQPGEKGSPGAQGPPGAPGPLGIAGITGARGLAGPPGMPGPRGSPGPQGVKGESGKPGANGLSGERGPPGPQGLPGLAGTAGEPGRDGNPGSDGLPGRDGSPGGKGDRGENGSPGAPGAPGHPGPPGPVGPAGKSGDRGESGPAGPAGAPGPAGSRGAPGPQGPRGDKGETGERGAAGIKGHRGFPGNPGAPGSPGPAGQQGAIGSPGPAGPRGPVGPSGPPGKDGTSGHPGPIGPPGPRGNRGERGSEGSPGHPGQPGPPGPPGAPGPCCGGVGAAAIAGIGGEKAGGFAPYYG

Row | Substance | koff (collagen I [1]) [s⁻¹] | Kd (collagen III) [µM] | Kd (collagen I [2]) [µM]
1 | collagen-binding, serum albumin-fused IL-4 variant (CBD-SA-IL-4) (from UniProt P04275) | 0.0026 | – | –
2 | collagen-binding, serum albumin-fused IL-4 variant (CBD-SA-IL-4) | – | 0.037 | 0.008

From article PMC10495343
